Assay results from US20190256864A1 (INDIANA UNIVERSITY RESEARCH AND TECHNOLOGY, published 2019).

Tests used:
[1] = tested on: T1, Soybean mosaic virus (SMV) PBS1 decoy protein
T1 sequence: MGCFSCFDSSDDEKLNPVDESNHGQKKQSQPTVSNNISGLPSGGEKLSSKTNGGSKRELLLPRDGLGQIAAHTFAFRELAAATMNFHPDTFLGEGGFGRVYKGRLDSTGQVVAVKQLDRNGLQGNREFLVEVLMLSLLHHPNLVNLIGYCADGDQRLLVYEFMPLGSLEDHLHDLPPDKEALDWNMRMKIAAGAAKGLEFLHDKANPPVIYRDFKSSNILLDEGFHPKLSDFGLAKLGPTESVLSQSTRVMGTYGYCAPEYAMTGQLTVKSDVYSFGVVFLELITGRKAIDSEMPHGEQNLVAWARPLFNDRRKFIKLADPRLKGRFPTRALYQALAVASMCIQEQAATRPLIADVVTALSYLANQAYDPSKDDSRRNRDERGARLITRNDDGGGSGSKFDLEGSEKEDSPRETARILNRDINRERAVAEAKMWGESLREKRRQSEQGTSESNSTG

[2] = tested on: T2, Wheat streak mosaic virus (WSMV) PBS1 decoy protein
T2 sequence: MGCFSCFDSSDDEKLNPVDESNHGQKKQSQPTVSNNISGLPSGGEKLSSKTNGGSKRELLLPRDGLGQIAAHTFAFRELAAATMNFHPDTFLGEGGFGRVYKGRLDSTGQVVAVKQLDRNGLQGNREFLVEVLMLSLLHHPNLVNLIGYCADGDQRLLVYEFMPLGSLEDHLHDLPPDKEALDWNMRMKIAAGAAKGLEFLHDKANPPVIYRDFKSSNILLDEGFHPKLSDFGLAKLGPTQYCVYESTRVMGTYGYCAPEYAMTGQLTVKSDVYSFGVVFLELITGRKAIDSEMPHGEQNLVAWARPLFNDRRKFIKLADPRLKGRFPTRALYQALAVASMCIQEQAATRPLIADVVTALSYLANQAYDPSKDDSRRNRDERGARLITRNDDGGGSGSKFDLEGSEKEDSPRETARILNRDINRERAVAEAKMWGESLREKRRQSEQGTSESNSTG

[3] = tested on: T3, GmPBS1SCS derivative of GmPBS1a
T3 sequence: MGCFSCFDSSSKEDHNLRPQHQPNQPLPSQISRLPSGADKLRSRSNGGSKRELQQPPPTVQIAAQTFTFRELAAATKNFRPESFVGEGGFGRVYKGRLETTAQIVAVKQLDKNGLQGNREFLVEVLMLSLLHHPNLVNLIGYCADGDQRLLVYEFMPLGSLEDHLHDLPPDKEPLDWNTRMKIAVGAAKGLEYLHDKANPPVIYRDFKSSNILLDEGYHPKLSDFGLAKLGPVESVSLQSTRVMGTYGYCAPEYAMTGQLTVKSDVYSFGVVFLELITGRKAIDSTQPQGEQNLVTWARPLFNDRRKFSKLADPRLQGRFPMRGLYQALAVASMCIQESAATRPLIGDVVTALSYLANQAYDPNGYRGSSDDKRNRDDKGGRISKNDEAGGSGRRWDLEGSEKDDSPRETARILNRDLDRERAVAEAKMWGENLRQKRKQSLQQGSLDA

[4] = tested on: T4, GmPBS1SCS derivative of GmPBS1c
T4 sequence: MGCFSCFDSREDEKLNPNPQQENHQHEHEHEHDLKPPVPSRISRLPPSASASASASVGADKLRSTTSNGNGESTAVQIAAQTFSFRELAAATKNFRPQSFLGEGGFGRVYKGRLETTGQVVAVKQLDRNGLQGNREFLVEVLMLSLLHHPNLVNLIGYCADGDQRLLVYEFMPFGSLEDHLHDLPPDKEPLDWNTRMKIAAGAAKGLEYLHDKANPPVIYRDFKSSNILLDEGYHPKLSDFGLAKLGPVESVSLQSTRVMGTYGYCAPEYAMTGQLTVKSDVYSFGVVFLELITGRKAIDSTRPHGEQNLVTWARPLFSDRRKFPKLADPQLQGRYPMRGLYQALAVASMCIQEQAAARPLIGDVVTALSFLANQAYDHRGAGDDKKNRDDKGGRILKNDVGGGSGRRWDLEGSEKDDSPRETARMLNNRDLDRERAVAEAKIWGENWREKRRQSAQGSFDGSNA

[5] = tested on: T5, GmPBS1SCS derivative of GmPBS1b
T5 sequence: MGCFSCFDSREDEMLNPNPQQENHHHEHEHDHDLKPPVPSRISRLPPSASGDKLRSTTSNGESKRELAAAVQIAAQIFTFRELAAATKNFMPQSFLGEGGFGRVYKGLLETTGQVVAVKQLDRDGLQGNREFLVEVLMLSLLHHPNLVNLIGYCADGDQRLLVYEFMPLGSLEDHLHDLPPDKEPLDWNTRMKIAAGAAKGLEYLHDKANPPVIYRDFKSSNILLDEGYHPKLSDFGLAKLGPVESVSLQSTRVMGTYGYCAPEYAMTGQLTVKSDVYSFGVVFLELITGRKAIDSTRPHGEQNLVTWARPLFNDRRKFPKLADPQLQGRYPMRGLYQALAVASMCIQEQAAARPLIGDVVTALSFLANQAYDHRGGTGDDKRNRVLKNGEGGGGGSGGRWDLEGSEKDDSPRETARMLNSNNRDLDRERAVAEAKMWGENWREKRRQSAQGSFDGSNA

sYFP:LTI6b = target: T6, sYFP:LTI6b (Arabidopsis thaliana, UniProt Q9ZNS6 1-54); assay: co-immunoprecipitation (GFP-Trap beads, anti-HA blot) after transient co-expression in N. benthamiana
T6 construct: Negative control in the co-immunoprecipitation; also called sYFP:LTI6b fusion protein; plasma membrane-localized negative control; not shown: N-terminal super yellow fluorescent protein (sYFP)
T6 sequence (looked up): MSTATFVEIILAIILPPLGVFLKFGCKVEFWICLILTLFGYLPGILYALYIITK
Procedure: To determine whether PBR1.c is activated by sensing cleavage of PBS1 proteins, co-immunoprecipitation (co-IP) analyses of PBR1.c with HvPBS1-1:HA, HvPBS1-2:HA, AtPBS1:HA, or NbPBS1:HA was performed. As a positive control, AtPBS1:HA was co-expressed with RPS5:sYFP, which forms a pre- activation complex in the absence of AvrPphB. As a negative control, the plasma membrane-localized fusion protein sYFP:LTI6b with each of the PBS1 proteins (Cutler et al., 2000). […] NbPBS1:HA also immunoprecipitated with PBR1.c:sYFP (and not with sYFP:LTI6b) supporting the notion that AvrPphB-mediated cleavage of NbPBS1 activates PBR1.c-dependent HR in N. benthamiana. Though all of the PBS1 proteins immunoprecipitated with PBR1.c:sYFP, PBR1.c:sYFP preferentially interacted with HvPBS1-2:HA and AtPBS1:HA (FIG. 7).
For transient expression assays in N. benthamiana, we followed the protocol described by DeYoung et al. (2012) and Kim et al. (2016). Briefly, the dexamethasone-inducible constructs were transformed into Agrobacterium tumefaciens GV3101 (pMP90) strains and were streaked onto Luria-Bertani (LB) plates containing 30 μg of gentamicin sulfate per milliliter and 50 μg of kanamycin per milliliter. […]

HvPBS1-1:HA = target: T7, HvPBS1-1:HA
T7 chain: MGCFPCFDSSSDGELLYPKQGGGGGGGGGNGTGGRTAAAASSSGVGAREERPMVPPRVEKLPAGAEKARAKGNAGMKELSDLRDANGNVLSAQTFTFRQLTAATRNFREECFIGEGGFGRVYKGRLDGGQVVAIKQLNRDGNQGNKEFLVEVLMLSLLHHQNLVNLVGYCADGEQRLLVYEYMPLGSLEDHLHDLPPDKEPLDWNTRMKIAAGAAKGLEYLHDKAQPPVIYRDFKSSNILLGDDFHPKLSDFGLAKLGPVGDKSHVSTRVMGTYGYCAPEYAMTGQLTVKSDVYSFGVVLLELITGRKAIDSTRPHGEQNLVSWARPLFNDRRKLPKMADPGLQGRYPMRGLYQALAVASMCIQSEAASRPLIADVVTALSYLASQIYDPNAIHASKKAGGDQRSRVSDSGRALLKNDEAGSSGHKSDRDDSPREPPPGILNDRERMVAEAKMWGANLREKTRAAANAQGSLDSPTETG

HvPBS1-2:HA = target: T8, HvPBS1-2:HA
T8 chain: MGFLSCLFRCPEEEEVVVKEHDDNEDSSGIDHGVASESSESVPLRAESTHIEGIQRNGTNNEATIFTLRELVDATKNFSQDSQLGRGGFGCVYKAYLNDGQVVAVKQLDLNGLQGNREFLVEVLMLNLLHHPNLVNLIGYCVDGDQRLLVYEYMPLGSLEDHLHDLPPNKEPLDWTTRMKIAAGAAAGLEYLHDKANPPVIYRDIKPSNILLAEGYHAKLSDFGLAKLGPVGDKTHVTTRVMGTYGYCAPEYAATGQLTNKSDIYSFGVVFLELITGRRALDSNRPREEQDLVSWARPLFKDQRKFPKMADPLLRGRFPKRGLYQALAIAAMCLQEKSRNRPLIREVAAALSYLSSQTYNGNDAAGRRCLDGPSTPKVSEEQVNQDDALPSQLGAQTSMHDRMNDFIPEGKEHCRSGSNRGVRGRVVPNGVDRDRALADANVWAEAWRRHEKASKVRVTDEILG

Molecule: Wheat streak mosaic virus (WSMV) NIa protease
- cleavage of the substrate (immunoblot after transient co-expression in N. benthamiana); not cleaved by the non-matching protease [1]: demonstrating cleavage of the decoy PBS1 proteins only by the matching proteases
- cleavage of the substrate (immunoblot after transient co-expression in N. benthamiana) [2]: demonstrating cleavage of the decoy PBS1 proteins only by the matching proteases

Molecule: Soybean mosaic virus (SMV) NIa protease
- cleavage of the substrate (transient coexpression in N. benthamiana) [3]: Transient coexpression of the modified GmPBS1 constructs along with the SMV NIa protease in N. benthamiana resulted in NIa-mediated cleavage of GmPBS1SCS
- cleavage of the substrate (transient coexpression in N. benthamiana) [4]: Transient coexpression of the modified GmPBS1 constructs along with the SMV NIa protease in N. benthamiana resulted in NIa-mediated cleavage of GmPBS1SCS
- cleavage of the substrate (transient coexpression in N. benthamiana) [5]: Transient coexpression of the modified GmPBS1 constructs along with the SMV NIa protease in N. benthamiana resulted in NIa-mediated cleavage of GmPBS1SCS
- cleavage of the substrate (immunoblot after transient co-expression in N. benthamiana) [1]: demonstrating cleavage of the decoy PBS1 proteins only by the matching proteases
- cleavage of the substrate (immunoblot after transient co-expression in N. benthamiana); not cleaved by the non-matching protease [2]: demonstrating cleavage of the decoy PBS1 proteins only by the matching proteases

B1: HvPBS1-1:HA (enzyme, not shown: small tags and cut ends)
chain: MGCFPCFDSSSDGELLYPKQGGGGGGGGGNGTGGRTAAAASSSGVGAREERPMVPPRVEKLPAGAEKARAKGNAGMKELSDLRDANGNVLSAQTFTFRQLTAATRNFREECFIGEGGFGRVYKGRLDGGQVVAIKQLNRDGNQGNKEFLVEVLMLSLLHHQNLVNLVGYCADGEQRLLVYEYMPLGSLEDHLHDLPPDKEPLDWNTRMKIAAGAAKGLEYLHDKAQPPVIYRDFKSSNILLGDDFHPKLSDFGLAKLGPVGDKSHVSTRVMGTYGYCAPEYAMTGQLTVKSDVYSFGVVLLELITGRKAIDSTRPHGEQNLVSWARPLFNDRRKLPKMADPGLQGRYPMRGLYQALAVASMCIQSEAASRPLIADVVTALSYLASQIYDPNAIHASKKAGGDQRSRVSDSGRALLKNDEAGSSGHKSDRDDSPREPPPGILNDRERMVAEAKMWGANLREKTRAAANAQGSLDSPTETG
notes: also called HORVU2Hr1G070690.2; MLOC_13277
- binding result (sYFP:LTI6b): no binding

B2: HvPBS1-2:HA (enzyme, not shown: small tags and cut ends)
chain: MGFLSCLFRCPEEEEVVVKEHDDNEDSSGIDHGVASESSESVPLRAESTHIEGIQRNGTNNEATIFTLRELVDATKNFSQDSQLGRGGFGCVYKAYLNDGQVVAVKQLDLNGLQGNREFLVEVLMLNLLHHPNLVNLIGYCVDGDQRLLVYEYMPLGSLEDHLHDLPPNKEPLDWTTRMKIAAGAAAGLEYLHDKANPPVIYRDIKPSNILLAEGYHAKLSDFGLAKLGPVGDKTHVTTRVMGTYGYCAPEYAATGQLTNKSDIYSFGVVFLELITGRRALDSNRPREEQDLVSWARPLFKDQRKFPKMADPLLRGRFPKRGLYQALAIAAMCLQEKSRNRPLIREVAAALSYLSSQTYNGNDAAGRRCLDGPSTPKVSEEQVNQDDALPSQLGAQTSMHDRMNDFIPEGKEHCRSGSNRGVRGRVVPNGVDRDRALADANVWAEAWRRHEKASKVRVTDEILG
notes: also called HORVU3Hr1G035810.1; MLOC_12866
- binding result (sYFP:LTI6b): no binding

B3: AvrPphB(C98S):myc (protein)
chain: MKIGTQATSLAVLHNQESHAPQAPIAVRPEPAHAIPEIPLDLAIRPRTRGIHPFLAMTLGDKGCASSSGVSLEDDSHTQVSLSDFSVASRDVNHNNISAGLSTEWLVMSSDGDAESRMDHLDYNGEGQSRGSERHQVYNDALRAALSNDDEAPFFTASTAVIEDAGFSLRREPKTVHASGGSAQLGQTVAHDVAQSGRKHLLSLRFANVQGHAIACSCEGSQFKLFDPNLGEFQSSRSAAPQLIKGLIDHYNSLNYDVACVNEFRVS
- cleavage of the substrate (Western blot after transient co-expression in N. benthamiana) (HvPBS1-1:HA): This did not produce any cleavage products
- cleavage of the substrate (immunoblot after transient co-expression in N. benthamiana) (NbPBS1:HA): Co-expression with AvrPphB:myc, but not the protease inactive mutant, resulted in cleavage of NbPBS1:HA
- cleavage of the substrate (Western blot after transient co-expression in N. benthamiana) (HvPBS1-2:HA): This did not produce any cleavage products
